Data: patent US7276481B2, “Method and composition for treatment of skeletal dysplasias” (ProChon Biotech Ltd., priority 2001, dated 2007)
Entries after “also recorded” stand apart in the source; their conditions may differ. Read-outs that look alike come from different tables or passages of the source. One block for each substance: values may come before it.

Key:
[1] = test system: femora derived from achondroplasia model mice (Ach369, Ach374) and wild type littermates; assay: Ex vivo femoral bone culture; settings: for bone elongation / longitudinal growth in bone culture (in words): femora of Ach and wild type mice, versus vehicle or untreated; for Growth rate (days 0-3) / Growth rate (days 3-15): CNP treated femora, 40 units=1 mm
Protocol: Femora derived from achondroplasia model mice (Ach369 knock-in mice carry the Gly to Cys mutation at position 369, analogous to position 375 in humans or Ach374 knock-in mice that carry the Gly to Arg mutation at position 374, analogous to position 380 in humans) were dissected from P0 wild type, heterozygote and homozygote littermates and cultured in the presence of natriuretic peptides for 15 days.
Protocol for Bone Culture: Femoral bone cultures were performed by excising the hind limbs of mice. The limbs were carefully cleaned from the surrounding tissue (skin and muscles) and the femora exposed. The femora were removed and further cleared from tissue remains and ligaments. The femora were measured for their initial length, using a binocular with an eyepiece micrometer ruler. The bones were grown in 1 ml of medium (α-MEM supplemented with penicillin (100 units/ml), streptomycin (0.1 mg/ml), nystatin (12.5 units/ml), BSA (0.2%), β-glycerophosphate (1 mM) and freshly prepared ascorbic acid (50 μg/ml)) with varying concentrations of NPs or CNP variants in a 24 well tissue culture dish. The bones were cultured for 15 days while measurements of bone length and medium replacement were performed every three days. At the end of the experiment, the growth rate of the bones was determined. The growth rate of bones is calculated from the slope of a linear regression fit on the length measurements obtained from day 3 to 15. Units given can be converted to length, 40 units=1 mm.

[2] = molecular target: T1, natriuretic peptide receptor on C3H10T1/2 cells (Mus musculus, UniProt Q6VVW5); assay: Biotrak enzyme immunoassay of cGMP elicited on C3H10T1/2 cells; assay type: cell-based
T1 construct: endogenous in cells; host or cells: C3H10T1/2 cells
T1 sequence (Q6VVW5 23-1047 limits assumed): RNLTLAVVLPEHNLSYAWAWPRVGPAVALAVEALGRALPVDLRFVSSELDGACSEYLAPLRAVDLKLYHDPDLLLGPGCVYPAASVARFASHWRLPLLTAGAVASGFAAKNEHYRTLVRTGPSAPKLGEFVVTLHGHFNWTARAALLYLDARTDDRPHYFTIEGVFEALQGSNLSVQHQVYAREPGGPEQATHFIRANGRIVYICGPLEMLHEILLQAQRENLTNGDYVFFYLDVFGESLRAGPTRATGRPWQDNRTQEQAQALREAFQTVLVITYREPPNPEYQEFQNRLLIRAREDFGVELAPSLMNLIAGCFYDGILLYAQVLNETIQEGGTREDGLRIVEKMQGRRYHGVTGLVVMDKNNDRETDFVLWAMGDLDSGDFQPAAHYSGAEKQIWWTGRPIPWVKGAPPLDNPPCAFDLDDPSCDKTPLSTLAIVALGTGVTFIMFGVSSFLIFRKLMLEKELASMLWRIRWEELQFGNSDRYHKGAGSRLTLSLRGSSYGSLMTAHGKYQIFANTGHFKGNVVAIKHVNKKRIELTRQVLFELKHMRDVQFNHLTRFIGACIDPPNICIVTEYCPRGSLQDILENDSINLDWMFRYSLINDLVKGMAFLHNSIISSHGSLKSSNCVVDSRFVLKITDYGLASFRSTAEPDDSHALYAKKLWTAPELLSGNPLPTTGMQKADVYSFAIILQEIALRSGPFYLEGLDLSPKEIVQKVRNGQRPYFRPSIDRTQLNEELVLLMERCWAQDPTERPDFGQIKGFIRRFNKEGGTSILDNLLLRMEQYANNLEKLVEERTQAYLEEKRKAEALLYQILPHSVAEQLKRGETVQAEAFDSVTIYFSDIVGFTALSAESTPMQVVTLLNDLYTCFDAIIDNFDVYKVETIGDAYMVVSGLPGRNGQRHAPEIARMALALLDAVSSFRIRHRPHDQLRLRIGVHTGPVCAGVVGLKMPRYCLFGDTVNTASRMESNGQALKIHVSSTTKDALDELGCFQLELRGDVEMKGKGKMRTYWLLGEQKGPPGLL
Protocol: All peptide variants were analyzed for activity using the Biotrak enzyme immunoassay (EIA, Amersham) that measures the amount of secondary messenger, cyclic GMP (cGMP), elicited after activation of the natriuretic peptide receptor by the peptide on C3H10T1/2 cells. Amino acid substitutions are marked in bold and underlined. The assay was performed for CNP and variants at a concentration of 10^−6 M. The values are given as the percent of relative binding compared to CNP, where CNP 1-22 and CNP 5-22 yield 100% binding.

[3] = test system: fetal bone organ culture from wild type (normal) animals; settings: wild type fetal bones; cited from earlier work
[4] = 125Iodine-labeled GH in blood after IP administration; assay type: in vivo, mice; settings: 125Iodine-labeled GH IP, one hour after a pulse of unlabelled GH
Text: To determine whether GH can enter the growth plate from the circulation, GH was labeled with ^125Iodine and administered to mice IP, one hour after a pulse of unlabelled GH. Blood samples were collected at several time points and analyzed on a protein gel.

[5] = Table 2, cGMP assay, compared to CNP
[6] = Table 3, cGMP values at 10^-6 M, compared to CNP (CNP 1-22 and CNP 5-22 = 100%)

Substance: C F G L K L Q R I G S M S G L G C (CFGLKLQRIGSMSGLGC; peptide variant) [SEQ ID NO:36]
- cGMP response as percent of CNP [2, 6]: −17.095%

Substance: C F G L L L D R I G S M S G L G C (CFGLLLDRIGSMSGLGC; peptide variant) [SEQ ID NO:43]
- cGMP response as percent of CNP [2, 6]: 29.744%

Substance: C H F G L K L D R I - - - - - - C (CHFGLKLDRIC; peptide variant) [SEQ ID NO:23]
- cGMP response as percent of CNP [2, 5]: 3.8%

Substance: C H F G L K L D R I G A Q S - - C (CHFGLKLDRIGAQSC; peptide variant) [SEQ ID NO:13]
- cGMP response as percent of CNP [2, 5]: 26.5%

Substance: C H F G L K L D R I G S M A - - C (CHFGLKLDRIGSMAC; peptide variant) [SEQ ID NO:12]
- cGMP response as percent of CNP [2, 5]: 21.7%

Substance: C L G L K L D R I G S M S G L G C (CLGLKLDRIGSMSGLGC; peptide variant) [SEQ ID NO:29]
- cGMP response as percent of CNP [2, 6]: 6.255%

Substance: C M G L K L D R I G S M S G L G C (CMGLKLDRIGSMSGLGC; peptide variant) [SEQ ID NO:30]
- cGMP response as percent of CNP [2, 6]: −1.341%

Substance: C T G L K L D R I G S A S G L G C (CTGLKLDRIGSASGLGC; peptide variant) [SEQ ID NO:71]
- cGMP response as percent of CNP [2, 6]: −9.108%

Substance: C T G L K L D R I G S M S G L G C (CTGLKLDRIGSMSGLGC; peptide variant) [SEQ ID NO:34]
- cGMP response as percent of CNP [2, 6]: −6.903%

Substance: C-type natriuretic peptide [CNP]
- induction of bone elongation (rank order) [3]: more than BNP and much more than ANP
- Growth rate (days 0-3) ([1]; +/+ wild type (wt)): 0.25 mm/day
- Growth rate (days 3-15) ([1]; +/+ wild type (wt)): 0.143 mm/day
- Growth rate (days 0-3) ([1]; Ach/+ heterozygote): 0.228 mm/day
- Growth rate (days 3-15) ([1]; Ach/+ heterozygote): 0.085 mm/day
- Growth rate (days 0-3) ([1]; Ach/Ach homozygote): 0.177 mm/day
- Growth rate (days 3-15) ([1]; Ach/Ach homozygote): 0.07 mm/day
- bone elongation / longitudinal growth in bone culture (in words) [1]: increased the total longitudinal growth of femora; also recorded: increased in size at a rate higher than that of the untreated limbs
- cGMP response as percent of CNP [2, 6]: 100%

Substance: GH: growth hormone labeled with 125Iodine and administered to mice IP
- labeling of blood samples on a protein gel over time [4]: increases in the first 2-3 hours, can still be observed at 6 hours and almost disappears at 24 hrs

More lines, main results first:

- activity in cGMP assay (in words) [2]: increases activity
- cGMP response as percent of CNP [2, 5]: 138.1%
- activity in cGMP assay (in words) ([2]; listed as SEQ ID NO: 10): retains high activity
Substance: C F G L K L D R I G S A S G L G C (CFGLKLDRIGSASGLGC; peptide variant) [SEQ ID NO:10]
- bone elongation / longitudinal growth in bone culture (in words) [1]: induced elongation of Ach369 femora even at a concentration similar to that of CNP

- cGMP response as percent of CNP [2, 6]: 66.714%
Substance: C F G L K V D R I G S M S G L G C (CFGLKVDRIGSMSGLGC; peptide variant) [SEQ ID NO:47]

- cGMP response as percent of CNP [2, 6]: 5.421%
Substance: C F G L M L D R I G S M S G L G C (CFGLMLDRIGSMSGLGC; peptide variant) [SEQ ID NO:44]

- cGMP response as percent of CNP [2, 6]: 64.212%
Substance: C F G V K L D R I G S M S G L G C (CFGVKLDRIGSMSGLGC; peptide variant) [SEQ ID NO:42]

- cGMP response as percent of CNP [2, 5]: 11.9%
Substance: C H F G L K L D R I G S - - - - C (CHFGLKLDRIGSC; peptide variant) [SEQ ID NO:20]

- cGMP response as percent of CNP [2, 5]: 25.9%
Substance: C H F G L K L D R I G S M S - - C (CHFGLKLDRIGSMSC; peptide variant) [SEQ ID NO:11]

- cGMP response as percent of CNP [2, 6]: 3.058%
Substance: C H G L K L D R I G S A S G L G C (CHGLKLDRIGSASGLGC; peptide variant) [SEQ ID NO:70]

- cGMP response as percent of CNP [2, 6]: 5.699%
Substance: C H G L K L D R I G S M S G L G C (CHGLKLDRIGSMSGLGC; peptide variant) [SEQ ID NO:33]

- cGMP response as percent of CNP [2, 6]: 13.899%
Substance: C I G L K L D R I G S M S G L G C (CIGLKLDRIGSMSGLGC; peptide variant) [SEQ ID NO:28]

- cGMP response as percent of CNP [2, 6]: 5.740%
Substance: C V G L K L D R I G S M S G L G C (CVGLKLDRIGSMSGLGC; peptide variant) [SEQ ID NO:32]

- cGMP response as percent of CNP [2, 6]: −10.834%
Substance: C W G L K L D R I G S M S G L G C (CWGLKLDRIGSMSGLGC; peptide variant) [SEQ ID NO:31]
